Laboratory results from paper PMC5596342, “Activity-Related Conformational Changes in D,D-Carboxypeptidases Revealed by In Vivo Periplasmic Förster Resonance Energy Transfer Assay in Escherichia coli” (mBio, 2017).

B1: PBP5 (D,D-carboxypeptidase, dacA), fluorescent-protein fusions mNG-PBP5 and mCh-PBP5 (enzyme, Escherichia coli, UniProt P0AEB2 30-403, looked up)
chain: DDLNIKTMIPGVPQIDAESYILIDYNSGKVLAEQNADVRRDPASLTKMMTSYVIGQAMKAGKFKETDLVTIGNDAWATGNPVFKGSSLMFLKPGMQVPVSQLIRGINLQSGNDACVAMADFAAGSQDAFVGLMNSYVNALGLKNTHFQTVHGLDADGQYSSARDMALIGQALIRDVPNEYSIYKEKEFTFNGIRQLNRNGLLWDNSLNVDGIKTGHTDKAGYNLVASATEGQMRLISAVMGGRTFKGREAESKKLLTWGFRFFETVNPLKVGKEFASEPVWFGDSDRASLGVDKDVYLTIPRGRMKDLKASYVLNSSELHAPLQKNQVVGTINFQLDGKTIEQRPLVVLQEIPEGNFFGKIIDYIKLMFHHWFG
notes: PBP5 (dacA) of Escherichia coli; the FP is fused to the N terminus; construct details in Text S7 and S8; One molecule for the two differently tagged copies (mNG-PBP5 and mCh-PBP5), each chain carrying only one of the two fluorescent proteins; PDB 5J8X is a soluble form that lacks the C-terminal helix; also called FP-PBP5; source: E. coli, expressed from plasmid pSAV057 or pTHV037 (15 µM IPTG), in …
B2: PBP6b^S63G active-site mutant, fusions mNG-PBP6b^S63G and mCh-PBP6b^S63G (enzyme, Escherichia coli, UniProt P33013 22-388, looked up)
chain: AENIPFSPQPPEIHAGSWVLMDYTTGQILTAGNEHQQRNPAGLTKLMTGYVVDRAIDSHRITPDDIVTVGRDAWAKDNPVFVGSSLMFLKEGDRVSVRDLSRGLIVDSGNDACVALADYIAGGQRQFVEMMNNYAEKLHLKDTHFETVHGLDAPGQHSSAYDLAVLSRAIIHGEPEFYHMYSEKSLTWNGITQQNRNGLLWDKTMNVDGLKTGHTSGAGFNLIASAVDGQRRLIAVVMGADSAKGREEEARKLLRWGQQNFTTVQILHRGKKVGTERIWYGDKENIDLGTEQEFWMVLPKAEIPHIKAKYTLDGKELTAPISAHQRVGEIELYDRDKQVAHWPLVTLESVGEGSMFSRLSDYFHHKA
notes: PBP6b (dacD) of Escherichia coli with the active-site serine 63 changed to glycine; One molecule for the two differently tagged copies; source: E. coli, expressed from plasmids pSAV057 and pTHV037, in the periplasm of fixed cells; not shown: mNeonGreen (donor copy) or mCherry (acceptor copy), N-terminal, kept
B3: PBP5^S44G active-site mutant, fusions mNG-PBP5^S44G and mCh-PBP5^S44G (enzyme, Escherichia coli, UniProt P0AEB2 30-403, looked up)
chain: DDLNIKTMIPGVPQIDAESYILIDYNSGKVLAEQNADVRRDPAGLTKMMTSYVIGQAMKAGKFKETDLVTIGNDAWATGNPVFKGSSLMFLKPGMQVPVSQLIRGINLQSGNDACVAMADFAAGSQDAFVGLMNSYVNALGLKNTHFQTVHGLDADGQYSSARDMALIGQALIRDVPNEYSIYKEKEFTFNGIRQLNRNGLLWDNSLNVDGIKTGHTDKAGYNLVASATEGQMRLISAVMGGRTFKGREAESKKLLTWGFRFFETVNPLKVGKEFASEPVWFGDSDRASLGVDKDVYLTIPRGRMKDLKASYVLNSSELHAPLQKNQVVGTINFQLDGKTIEQRPLVVLQEIPEGNFFGKIIDYIKLMFHHWFG
notes: PBP5 (dacA) of Escherichia coli with the active-site change of Ser to Gly at position 44; One molecule for the two differently tagged copies; also called FP-PBP5^S44G; source: E. coli ΔdacA strain, expressed from plasmids pSAV057 and pTHV037, in the periplasm of fixed cells; not shown: mNeonGreen (donor copy) or mCherry (acceptor copy), N-terminal, kept
B4: PBP6a (D,D-carboxypeptidase, dacC), fusions mNG-PBP6a and mCh-PBP6a (enzyme, Escherichia coli, UniProt P08506 28-400, looked up)
chain: AEQTVEAPSVDARAWILMDYASGKVLAEGNADEKLDPASLTKIMTSYVVGQALKADKIKLTDMVTVGKDAWATGNPALRGSSVMFLKPGDQVSVADLNKGVIIQSGNDACIALADYVAGSQESFIGLMNGYAKKLGLTNTTFQTVHGLDAPGQFSTARDMALLGKALIHDVPEEYAIHKEKEFTFNKIRQPNRNRLLWSSNLNVDGMKTGTTAGAGYNLVASATQGDMRLISVVLGAKTDRIRFNESEKLLTWGFRFFETVTPIKPDATFVTQRVWFGDKSEVNLGAGEAGSVTIPRGQLKNLKASYTLTEPQLTAPLKKGQVVGTIDFQLNGKSIEQRPLIVMENVEEGGFFGRVWDFVMMKFHQWFGSWFS
notes: PBP6a (dacC) of Escherichia coli; construct details in Text S7 and S8; One molecule for the two differently tagged copies; also called FP-PBP6a; source: E. coli, expressed from plasmids pSAV057 and pTHV037 (15 µM IPTG), in the periplasm of fixed cells; not shown: mNeonGreen (donor copy) or mCherry (acceptor copy), N-terminal, kept
B5: PBP6a^S66G active-site mutant, fusions mNG-PBP6a^S66G and mCh-PBP6a^S66G (enzyme, Escherichia coli, UniProt P08506 28-400, looked up)
chain: AEQTVEAPSVDARAWILMDYASGKVLAEGNADEKLDPAGLTKIMTSYVVGQALKADKIKLTDMVTVGKDAWATGNPALRGSSVMFLKPGDQVSVADLNKGVIIQSGNDACIALADYVAGSQESFIGLMNGYAKKLGLTNTTFQTVHGLDAPGQFSTARDMALLGKALIHDVPEEYAIHKEKEFTFNKIRQPNRNRLLWSSNLNVDGMKTGTTAGAGYNLVASATQGDMRLISVVLGAKTDRIRFNESEKLLTWGFRFFETVTPIKPDATFVTQRVWFGDKSEVNLGAGEAGSVTIPRGQLKNLKASYTLTEPQLTAPLKKGQVVGTIDFQLNGKSIEQRPLIVMENVEEGGFFGRVWDFVMMKFHQWFGSWFS
notes: PBP6a (dacC) of Escherichia coli with the active-site serine 66 changed to glycine; One molecule for the two differently tagged copies; source: E. coli, expressed from plasmids pSAV057 and pTHV037, in the periplasm of fixed cells; not shown: mNeonGreen (donor copy) or mCherry (acceptor copy), N-terminal, kept

Biological target: the molecule itself
Assay: FRET or BRET; spectrum-based periplasmic FRET (mNG donor, mCh acceptor, spectral unmixing, acceptor FRET efficiency EfA) in E. coli grown in Gb1 at 28°C, induced with 15 µM IPTG, fixed with 2.8% formaldehyde and 0.04% glutaraldehyde, measured in PBS in a spectrofluorimeter; where indicated cells treated with 2 µg/ml amdinocillin or 1 µg/ml aztreonam during induction; cut-off for interaction EfA above 1.4%

Which “EfA (acceptor FRET efficiency)” value does the source give for B1 here?
The value was 2%.

With B2 as the protein, how does the “EfA (acceptor FRET efficiency)” value read?
The value was 2%.

Which “EfA (acceptor FRET efficiency)” value does the source give for B3 here?
The value was 5.4%.

For B4, which “EfA (acceptor FRET efficiency)” value is on record?
Its value is 3.2%.

Which “EfA (acceptor FRET efficiency)” value does the source give for B5 here?
The value was 3.8%.
